Experimental data as given in paper PMC7515719, “The crystal structure of human XPG, the xeroderma pigmentosum group G endonuclease, provides insight into nucleotide excision DNA repair”.
Where a chain is given by its changes, count along the chain named.

Tests used:
XPGn3 K917E = target: T1, XPGn3 K917E (Homo sapiens, UniProt P28715 2-112+=GT+750-990, K917E;internal_change); assay: EMSA; minimal or null effect; EMSA: 2.5 uM DNA, 1-8 uM protein, buffer H (composition not in material) + 15% glycerol, 25 C, 30 min, 7% native PAGE; crystals: complex in 20 mM Tris pH 7.5, 100 mM KCl, grown in 5% PEG 3350, 50 mM sodium citrate pH 4.0, 22 C; settings: protein: recombinant; tags: N-terminal His-TEV cleaved; fork: 12 bp duplex, 4 nt 5' arm (strand 1), 5 nt 3' arm (strand 2)
T1 sequence: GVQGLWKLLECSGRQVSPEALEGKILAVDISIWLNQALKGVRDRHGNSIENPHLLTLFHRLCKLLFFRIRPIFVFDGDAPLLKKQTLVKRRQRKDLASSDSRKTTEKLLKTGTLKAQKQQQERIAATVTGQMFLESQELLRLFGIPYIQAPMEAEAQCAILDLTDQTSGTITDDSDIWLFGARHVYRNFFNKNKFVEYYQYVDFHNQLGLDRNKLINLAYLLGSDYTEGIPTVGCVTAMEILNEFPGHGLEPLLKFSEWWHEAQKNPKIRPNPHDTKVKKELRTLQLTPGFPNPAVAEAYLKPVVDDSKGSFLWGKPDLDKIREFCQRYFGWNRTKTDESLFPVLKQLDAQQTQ

XPGn3 K916A = target: T2, XPGn3 K916A (Homo sapiens, UniProt P28715 2-112+=GT+750-990, K916A;internal_change); assay: as above; settings: protein: recombinant; tags: N-terminal His-TEV cleaved; fork: 12 bp duplex, 4 nt 5' arm (strand 1), 5 nt 3' arm (strand 2)
T2 sequence: T1 sequence with K280A, E281K

XPGn3 K913A = target: T3, XPGn3 K913A (Homo sapiens, UniProt P28715 2-112+=GT+750-990, K913A;internal_change); assay: as above; settings: protein: recombinant; tags: N-terminal His-TEV cleaved; fork: 12 bp duplex, 4 nt 5' arm (strand 1), 5 nt 3' arm (strand 2)
T3 sequence: T1 sequence with K277A, E281K

XPGn3 R823A = target: T4, XPGn3 R823A (Homo sapiens, UniProt P28715 2-112+=GT+750-990, R823A;internal_change); assay: EMSA; value from '~10% reduction'; EMSA: 2.5 uM DNA, 1-8 uM protein, buffer H (composition not in material) + 15% glycerol, 25 C, 30 min, 7% native PAGE; crystals: complex in 20 mM Tris pH 7.5, 100 mM KCl, grown in 5% PEG 3350, 50 mM sodium citrate pH 4.0, 22 C; settings: protein: recombinant; tags: N-terminal His-TEV cleaved; fork: 12 bp duplex, 4 nt 5' arm (strand 1), 5 nt 3' arm (strand 2)
T4 sequence: T1 sequence with R187A, E281K

XPGn3 D812A = target: T5, XPGn3 D812A (Homo sapiens, UniProt P28715 2-112+=GT+750-990, D812A;internal_change); assay: EMSA; no influence on binding; EMSA: 2.5 uM DNA, 1-8 uM protein, buffer H (composition not in material) + 15% glycerol, 25 C, 30 min, 7% native PAGE; crystals: complex in 20 mM Tris pH 7.5, 100 mM KCl, grown in 5% PEG 3350, 50 mM sodium citrate pH 4.0, 22 C; settings: protein: recombinant; tags: N-terminal His-TEV cleaved; fork: 12 bp duplex, 4 nt 5' arm (strand 1), 5 nt 3' arm (strand 2)
T5 sequence: T1 sequence with D176A, E281K

XPGn3 K828E = target: T6, XPGn3 K828E (Homo sapiens, UniProt P28715 2-112+=GT+750-990, K828E;internal_change); assay: EMSA; only cleavage mildly lowered; EMSA: 2.5 uM DNA, 1-8 uM protein, buffer H (composition not in material) + 15% glycerol, 25 C, 30 min, 7% native PAGE; crystals: complex in 20 mM Tris pH 7.5, 100 mM KCl, grown in 5% PEG 3350, 50 mM sodium citrate pH 4.0, 22 C; settings: protein: recombinant; tags: N-terminal His-TEV cleaved; fork: 12 bp duplex, 4 nt 5' arm (strand 1), 5 nt 3' arm (strand 2)
T6 sequence: T1 sequence with K192E, E281K

XPGn3 K972E = target: T7, XPGn3 K972E (Homo sapiens, UniProt P28715 2-112+=GT+750-990, K972E;internal_change); assay: as above; settings: protein: recombinant; tags: N-terminal His-TEV cleaved; fork: 12 bp duplex, 4 nt 5' arm (strand 1), 5 nt 3' arm (strand 2)
T7 sequence: T1 sequence with E281K, K336E

XPGn1 D812A = target: T8, XPGn1 D812A (Homo sapiens, UniProt P28715 1-112+=GT+750-990, D812A;internal_change); assay: crystal structure; C1, space group I422, one complex per ASU; EMSA: 2.5 uM DNA, 1-8 uM protein, buffer H (composition not in material) + 15% glycerol, 25 C, 30 min, 7% native PAGE; crystals: complex in 20 mM Tris pH 7.5, 100 mM KCl, grown in 5% PEG 3350, 50 mM sodium citrate pH 4.0, 22 C; settings: protein: recombinant; tags: N-terminal His-3C cleaved, leaves Gly-Pro-His before Met1; fork: 10 bp duplex, 1 nt 5' arm (strand 1), 1 nt 3' arm (strand 2)
T8 sequence: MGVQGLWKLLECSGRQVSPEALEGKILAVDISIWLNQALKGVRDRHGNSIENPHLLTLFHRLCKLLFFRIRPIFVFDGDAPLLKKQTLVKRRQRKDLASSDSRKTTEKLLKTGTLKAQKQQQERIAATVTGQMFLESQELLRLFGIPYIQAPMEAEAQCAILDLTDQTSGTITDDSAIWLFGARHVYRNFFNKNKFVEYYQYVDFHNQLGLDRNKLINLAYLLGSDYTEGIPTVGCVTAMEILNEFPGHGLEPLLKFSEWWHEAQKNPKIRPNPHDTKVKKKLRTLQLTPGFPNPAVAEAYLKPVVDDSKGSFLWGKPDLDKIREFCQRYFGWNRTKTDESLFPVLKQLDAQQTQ

B1: DNA-2 splayed-arm (dsDNA)
DNA 1: TACTTGCAGAGTTCGC
DNA 2: GCGAACTCTGCAGAGCA
Q: Does B1 bind (XPGn3 K917E)?
A: binds

Q: Does B1 bind (XPGn3 K916A)?
A: binds

Q: Does B1 bind (XPGn3 K913A)?
A: binds

Q: And the binding signal (XPGn3 R823A)?
A: ~90 % of wild-type binding

Q: Does B1 bind (XPGn3 D812A)?
A: binds

Q: Does B1 bind (XPGn3 K828E)?
A: binds

Q: Does B1 bind (XPGn3 K972E)?
A: binds

B2: DNA-1 splayed-arm (dsDNA)
DNA 1: TTGCAGAGTTC
DNA 2: GAACTCTGCAG
Q: Does B2 bind (XPGn1 D812A)?
A: binds
